Experimental findings from the RNAGym collection of RNA variant scans (doi:10.1073/pnas.2313332121) are described below.

Fewer inactive variants are shown than the library holds.

B1: TPR 5TU (parent)
chain: GGAUCUUCUCGAUCUAACAAAAAAGACAAAUCUGCCACAAAGCUUGAGAGCAUCUUCGGAUGCAGAGGCGGCAGCCUUCGGUGGCGCGAUAGCGCCAACGUUCUCAACUAUGACACGCAAAACGCGUGCUCCGUUGAAUGGAGUUUAUCAUG

Variants of B1 are the subject of the data set. Put plainly: polymerase ribozyme fitness, log enrichment relative to wild type (log ratio); higher = more active; in vitro selection for triplet polymerase activity. The method in brief:
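Fitness is a logarithmic measure of how a genotype enriched relative to the wild type, with replicate averages weighted by inverse variance. The logarithm uses base 2, and enrichment came from Illumina sequencing of input and output libraries. Those libraries were PCR-built, transcribed mutants of each subunit of a heterodimeric triplet polymerase ribozyme, passed through one triplicate in vitro selection round that included frozen incubation at −7 °C, gel excision of extended constructs and streptavidin-bead capture. Genotypes were kept only if they had ≥10 input reads and ≥1 read per output.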
Consider C75G U78C C99U C132G, for which the “polymerase ribozyme fitness (log ratio)” value was ≤ -4.2.

Regarding A20G G68U G126U C132A, the “polymerase ribozyme fitness (log ratio)” value was ≤ -4.2.

Turning to C36U A66C C69A U78G, the “polymerase ribozyme fitness (log ratio)” value was ≤ -4.2.

In the case of C10U A39G U102C, the “polymerase ribozyme fitness (log ratio)” value was ≤ -4.2.

As to U61G G83A, the “polymerase ribozyme fitness (log ratio)” value is -1.01.

As to C10G A73G G92U, the “polymerase ribozyme fitness (log ratio)” value was ≤ -4.2.

As for A41U A66C G67A C79G C96U A150U, the “polymerase ribozyme fitness (log ratio)” value is ≤ -4.2.

In the case of A24U A121U G124U, the “polymerase ribozyme fitness (log ratio)” value was -1.16.

For C51U G68U C87U U145C, the “polymerase ribozyme fitness (log ratio)” value is ≤ -4.2.

Regarding C8G U13G A40C U77A G94A A97C C99U A113G G117U U139G U144G, the “polymerase ribozyme fitness (log ratio)” value was ≤ -4.2.

A41C G143A: the “polymerase ribozyme fitness (log ratio)” value is -1.42.

As for U77C C116U, the “polymerase ribozyme fitness (log ratio)” value is -3.64.

For the variant G11A A30C C99A C118U U145G, the “polymerase ribozyme fitness (log ratio)” value is ≤ -4.2.

For A17G A19C G80C G92A C116U G136C G140A, the “polymerase ribozyme fitness (log ratio)” value was ≤ -4.2.

As to C96U G128U U146C, the “polymerase ribozyme fitness (log ratio)” value was -3.35.

Consider C54G C93A, for which the “polymerase ribozyme fitness (log ratio)” value was -4.19.

With A20G U45C U56G C57U C75A C87G G136C, the “polymerase ribozyme fitness (log ratio)” value was ≤ -4.2.

As to G11U A30U G65U G70C C85G A91U C93A A150U, the “polymerase ribozyme fitness (log ratio)” value is ≤ -4.2.

For the variant A17G U53A C99G U130C, the “polymerase ribozyme fitness (log ratio)” value was ≤ -4.2.

For C27A C38U G81A G86U A110U, the “polymerase ribozyme fitness (log ratio)” value is ≤ -4.2.

For G92U A121G G143C U145G, the “polymerase ribozyme fitness (log ratio)” value was -3.44.

Regarding C76A U90C U146G, the “polymerase ribozyme fitness (log ratio)” value was ≤ -4.2.

As for A49U C76A U77G C95G C96U C108U A142G, the “polymerase ribozyme fitness (log ratio)” value was ≤ -4.2.

As for A29G A73U A91G C99U A115U A137U, the “polymerase ribozyme fitness (log ratio)” value is ≤ -4.2.

As for C85U U102G, the “polymerase ribozyme fitness (log ratio)” value was -3.32.

As for A121C C123A U127C, the “polymerase ribozyme fitness (log ratio)” value is -1.91.

For C36G C57G C72G C118U, the “polymerase ribozyme fitness (log ratio)” value is ≤ -4.2.

Take A49C G59C A91U: the “polymerase ribozyme fitness (log ratio)” value is ≤ -4.2.

On to C38A U90A G92A C103G G117U A138G, for which the “polymerase ribozyme fitness (log ratio)” value is ≤ -4.2.

As to U6A U53A G86A A91C G128C, the “polymerase ribozyme fitness (log ratio)” value is ≤ -4.2.

Take G92C A98U G143A: the “polymerase ribozyme fitness (log ratio)” value is -1.77.

Regarding A37G C72U A97G U102G C118U, the “polymerase ribozyme fitness (log ratio)” value was ≤ -4.2.

Take C8U C14G U33G C51G C54U C57A U77G C87G G136U: the “polymerase ribozyme fitness (log ratio)” value is ≤ -4.2.

On to C10A A17C G34A A91C U102G G140U, for which the “polymerase ribozyme fitness (log ratio)” value is -3.67.

Regarding G86U C103A A121G, the “polymerase ribozyme fitness (log ratio)” value was -2.73.

As to U7G C10U C35U A64G C96A C129A, the “polymerase ribozyme fitness (log ratio)” value was ≤ -4.2.

For A41C C96A U146A, the “polymerase ribozyme fitness (log ratio)” value was -0.97.

As for U7G G34U A60U C93U A107U, the “polymerase ribozyme fitness (log ratio)” value is ≤ -4.2.

A23U G83U C93A G126U C129U: the “polymerase ribozyme fitness (log ratio)” value is ≤ -4.2.

Take C5A A24C G48U G65C C87U C99U A121G: the “polymerase ribozyme fitness (log ratio)” value was ≤ -4.2.

On to A12U A17U C18U G34A A64G C87G, for which the “polymerase ribozyme fitness (log ratio)” value was ≤ -4.2.

Consider C51U C103A, for which the “polymerase ribozyme fitness (log ratio)” value is -1.29.

In the case of A73G A98G U146G, the “polymerase ribozyme fitness (log ratio)” value is -1.02.

For C51A A60G A89U, the “polymerase ribozyme fitness (log ratio)” value is -1.65.

Regarding A52C G80C G83U, the “polymerase ribozyme fitness (log ratio)” value is ≤ -4.2.

Consider A47C C57A, for which the “polymerase ribozyme fitness (log ratio)” value was -0.176.

In the case of A24U C93U C118U A121G, the “polymerase ribozyme fitness (log ratio)” value was -1.37.

In the case of C10G A29C A30U G48U U55A A89U C93G G128U, the “polymerase ribozyme fitness (log ratio)” value is ≤ -4.2.

As to A12G A21G C43U U55A G83U U144G, the “polymerase ribozyme fitness (log ratio)” value was ≤ -4.2.

Consider U4G U56G U144A, for which the “polymerase ribozyme fitness (log ratio)” value was -1.19.

U6A C14U A41U G48U: the “polymerase ribozyme fitness (log ratio)” value was -3.87.

For the variant G42A G58C C79A C118U A142U, the “polymerase ribozyme fitness (log ratio)” value was ≤ -4.2.

A16G A97G U144G: the “polymerase ribozyme fitness (log ratio)” value was -0.0952.

As for C35U A97G U134G U144G, the “polymerase ribozyme fitness (log ratio)” value is -2.34.

For the variant U127G A147U, the “polymerase ribozyme fitness (log ratio)” value is -3.92.

As for G62C C76U U139G, the “polymerase ribozyme fitness (log ratio)” value was -3.09.

With U15G C27A, the “polymerase ribozyme fitness (log ratio)” value is -4.13.

In the case of A40C G50U C69G C116U, the “polymerase ribozyme fitness (log ratio)” value was -3.24.

Take U31A G58A U61A G84U A89C: the “polymerase ribozyme fitness (log ratio)” value was -3.15.

In the case of G48U G86U, the “polymerase ribozyme fitness (log ratio)” value is -1.58.

As for A29U G48A U61G G84U C85A C105U G126U, the “polymerase ribozyme fitness (log ratio)” value is ≤ -4.2.

Consider A17C A30G C95G, for which the “polymerase ribozyme fitness (log ratio)” value is -3.8.

As to C72U A73C A98G C118A G124C U135C U139A, the “polymerase ribozyme fitness (log ratio)” value was ≤ -4.2.

For G34A U101A, the “polymerase ribozyme fitness (log ratio)” value is -2.82.

For A22U C54A A91G, the “polymerase ribozyme fitness (log ratio)” value is -3.53.

For the variant G94A U127G U146G, the “polymerase ribozyme fitness (log ratio)” value is -3.33.

Regarding C51G G80A G84U G140C, the “polymerase ribozyme fitness (log ratio)” value was ≤ -4.2.

G88A U101G U102G A138U U139G: the “polymerase ribozyme fitness (log ratio)” value is ≤ -4.2.

With G25A A30G A41U G50A C87U, the “polymerase ribozyme fitness (log ratio)” value is ≤ -4.2.

For A12G U13G A121G, the “polymerase ribozyme fitness (log ratio)” value was -2.27.

Turning to G58A C95U C96G, the “polymerase ribozyme fitness (log ratio)” value is -1.01.

Regarding U6G A16U C18U G67C G88C, the “polymerase ribozyme fitness (log ratio)” value is ≤ -4.2.

As to U13G A137U, the “polymerase ribozyme fitness (log ratio)” value is ≤ -4.2.

With U31G C43G U53A G83U, the “polymerase ribozyme fitness (log ratio)” value is ≤ -4.2.

As for C38U G84U A91U, the “polymerase ribozyme fitness (log ratio)” value was ≤ -4.2.

As to A39U G126C, the “polymerase ribozyme fitness (log ratio)” value is -0.865.

Take U9A C87A: the “polymerase ribozyme fitness (log ratio)” value is ≤ -4.2.

As for C14U A60U C96G, the “polymerase ribozyme fitness (log ratio)” value is ≤ -4.2.

In the case of A17C C95U C96U G136A U144C A147U, the “polymerase ribozyme fitness (log ratio)” value was -0.941.

On to U33A G50A A64C G83C, for which the “polymerase ribozyme fitness (log ratio)” value was ≤ -4.2.

On to U6A C18U A20C A22C U44C U55A C87A, for which the “polymerase ribozyme fitness (log ratio)” value was ≤ -4.2.

As to U7A G50A U78A C79G G86A C87A C99G A115U G141U, the “polymerase ribozyme fitness (log ratio)” value is ≤ -4.2.

In the case of C36A G84U U102A C103U U127C, the “polymerase ribozyme fitness (log ratio)” value was ≤ -4.2.

For the variant A40U A64G C93A A98G A107C U130G, the “polymerase ribozyme fitness (log ratio)” value was ≤ -4.2.
